Results taken from patent US20240374729A1 (published 2024).

T1: PRAME peptide on HLA-A*02:01 (human)
T1 peptide: SLLQHLIGL

T2: PRAME peptide on HLA-A*02:02 (human)
T2 peptide: SLLQHLIGL

T3: PRAME peptide on HLA-A*02:04 (human)
T3 peptide: SLLQHLIGL

T4: PRAME peptide on HLA-A*02:09 (human)
T4 peptide: SLLQHLIGL

T5: NY-ESO-1 peptide on HLA-A*02:01 (human)
T5 peptide: SLLMWITQC


Legend:
[1] = biological target: T1, PRAME peptide on HLA-A*02:01; test: killing
[2] = biological target: T2, PRAME peptide on HLA-A*02:02; test: cytokine release
[3] = biological target: T3, PRAME peptide on HLA-A*02:04; test: cytokine release
[4] = biological target: T4, PRAME peptide on HLA-A*02:09; test: cytokine release
[5] = biological target: T5, NY-ESO-1 peptide on HLA-A*02:01; test: cytokine release

Binder	binding result [1]	binding result [2]	binding result [3]	binding result [4]	binding result [5]
T23.8-2.1-027-004 (TCR, V domains shown) Valpha: GQQLNQSPQSMFIQEGEDVSMNCTSSSIFNTWLWYKQDPGEGPVLLIALYKAGELTSNGRLTAQFGITRKDSFLNISASIPSDVGIYFCAGLADYGGSQGNLIFGKGTKLSVKP Vbeta: DSGVTQTPKHLITATGQRVTLRCSPRSGDLSVYWYQQSLDQGLQFLIQYYNGEERAKGNILERFSAQQFPDLHSELNLSSLELGDSALYFCASSVWASGGYEQYFGPGTRLTVT	recognises	recognises	recognises	recognises	
NY-ESO-1/LAGE-1 specific TCR of SEQ ID NOs 41 and 42 (TCR, V domains shown) Valpha: QKEVEQNSGPLSVPEGAIASLNCTYSDRGSQSFFWYRQYSGKSPELIMFIYSNGDKEDGRFTAQLNKASQYVSLLIRDSQPSDSATYLCAADDKIIFGKGTRLHILP Vbeta: DAGVIQSPRHEVTEMGQEVTLRCKPISGHDYLFWYRQTMMRGLELLIYFNNNVPIDDSGMPEDRFSAKMPNASFSTLKIQPSEPRDSAVYFCASSRGGSGYTFGSGTRLTVV					recognises
